Results published in patent US20180273635A1 (Zymeworks, published 2018).

Key:
[1] = target: T1, HER2 expressed on the surface of cells (human, UniProt P04626 23-1255); test: cell-based or functional assay
[2] = target: T1, HER2 expressed on the surface of cells; test: cell-based or functional assay; remark: listed apart in the source
[3] = target: T1, HER2 expressed on the surface of cells; test: cell-based or functional assay; remark: listed apart in the source
[4] = target: T1, HER2 expressed on the surface of cells; test: cell-based or functional assay; remark: listed apart in the source
[5] = target: T1, HER2 expressed on the surface of cells; test: cell-based or functional assay; remark: listed apart in the source
[6] = target: T1, HER2 expressed on the surface of cells; test: flow cytometry on BT474 cells, n=1
Procedure: (§1) Binding of the test antigen-binding constructs to the surface of HER2+ cells was determined by flow cytometry. Cells were washed with PBS and resuspended in DMEM at 1×10⁵ cells/100 μl. 100 μl cell suspension was added into each microcentrifuge tube, followed by 10 μl/tube of the antigen-binding constructs. The tubes were incubated for 2 hr at 4° C. on a rotator. The microcentrifuge tubes were centrifuged for 2 min 2000 RPM at room temperature and the cell pellets washed with 500 μl media. Each cell pellet was resuspended in 100 μl of fluorochrome-labelled secondary antibody diluted in media to 2 μg/sample. The samples were then incubated for lhr at 4° C. on a rotator. After incubation, the cells were centrifuged for 2 min at 2000 rpm and washed in media. The cells were resuspended in 500 μl media, filtered, transferred to a tube containing 5 μl propidium iodide (PI) and analyzed on a BD LSR II flow cytometer according to the manufacturer's instructions. The B50 of the tested antigen-binding constructs was assessed by FACS with data analysis and curve fitting performed in GraphPad Prism. The experiment was carried out once (n=1) in SKBr3 cells, and twice (n=2) in SKOV3, MCF7, and BT-474 cells.
(§2) The experiment was performed once (n=1) in each cell line.

[7] = target: T1, HER2 expressed on the surface of cells; test: flow cytometry on SKBR3 cells, n=1
Procedure: as §1, §2

[8] = target: T1, HER2 expressed on the surface of cells; test: flow cytometry on MCF7 cells (low HER2), n=1
Procedure: as §1, §2

[9] = target: T1, HER2 expressed on the surface of cells; test: flow cytometry on BT474 cells, n=1; B50 = concentration at 50% of Bmax
Procedure: as §1, §2

[10] = target: T1, HER2 expressed on the surface of cells; test: flow cytometry on SKBR3 cells, n=1; B50 = concentration at 50% of Bmax
Procedure: as §1, §2

[11] = target: T1, HER2 expressed on the surface of cells; test: flow cytometry on MCF7 cells (low HER2), n=1; B50 = concentration at 50% of Bmax
Procedure: as §1, §2

Binder	growth inhibition IC50 (potency), SKBR3 cells [1]	growth inhibition span (percentage of cells killed), SKBR3 cells [1]	growth inhibition span ratio to WT, SKBR3 cells [1]	growth inhibition IC50 (potency), BT474 cells [2]	growth inhibition span (percentage of cells killed), BT474 cells [2]	growth inhibition span ratio to WT, BT474 cells [2]	growth inhibition IC50 (potency), BT474 cells + EGF [3]	growth inhibition span (percentage of cells killed), BT474 cells + EGF [3]	growth inhibition span ratio to WT, BT474 cells + EGF [3]	growth inhibition IC50 (potency), NCI-N87 cells, 5 days [4]	growth inhibition span (percentage of cells killed), NCI-N87 cells [4]	increase in efficacy with respect to the WT, NCI-N87 cells [4]	increase in potency with respect to the WT, NCI-N87 cells [4]	growth inhibition span (percentage of cells killed), MDA-MB-175 cells [5]	Bmax [6]	Bmax [7]	Bmax [8]	B50 [9]	B50 [10]	B50 [11]
Variant 14021 (antibody, name in Kabat numbering, V domains shown, also called v14021) VH: EVQLVESGGGLVQPGGSLRLSCAASGFTFQDYTMDWVRQAPGKGLEWVGDVNPNSGGSIYNQRFKGRFTFSVDRSWNTLYLQMNSLRAEDTAVYYCARNLGPSFYFDYWGQGTLVTVSS VL: DIQMTQSPSSLSASVGDRVTITCKASQDVSIGVAWYQQKPGKAPKLLIWSASYRYTGVPSRFSGSGSGTDFTLTISSLQPEDFATYYCQQYYIYPYTFGQGTKVEIKR	0.32 nM	31%	1.8 fold	0.49 nM	33%	3.1 fold	2 nM	44%	2.4 fold	2 nM	44%	2.6 fold	4.6 fold	82%	23000 MFI	31000 MFI	610 MFI	2.4 nM	10 nM	1 nM
Variant 14022 (antibody, name in Kabat numbering, V domains shown, also called v14022) VH: EVQLVESGGGLVQPGGSLRLSCAASGFTFQDYTMDWVRQAPGKGLEWVGDVNPNSGGSIYNQRFKGRFTFSVDRSKNTLYLQMNSLRAEDTAVYYCARNLGPWFYFDYWGQGTLVTVSS VL: DIQMTQSPSSLSASVGDRVTITCKASQDVSIGVAWYQQKPGKAPKLLIWSASYRYTGVPSRFSGSGSGTDFTLTISSLQPEDFATYYCQQYYIYPYTFGQGTKVEIKR	0.41 nM	26%	1.6 fold	0.54 nM	28%	2.6 fold	2.8 nM	35%	1.9 fold	5.2 nM	63%	3.7 fold	1.8 fold	83%	23000 MFI	31000 MFI	630 MFI	3 nM	9.8 nM	2 nM
Variant 14023 (antibody, name in Kabat numbering, V domains shown, also called v14023) VH: EVQLVESGGGLVQPGGSLRLSCAASGFTFQDYTMDWVRQAPGKGLEWVGDVNPNSGGSIYNQRFKGRFTFSVDRSWNTLYLQMNSLRAEDTAVYYCARNLGPWFYFDYWGQGTLVTVSS VL: DIQMTQSPSSLSASVGDRVTITCKASQDVSIGVAWYQQKPGKAPKLLIWSASYRYTGVPSRFSGSGSGTDFTLTISSLQPEDFATYYCQQYYIYPYTFGQGTKVEIKR	0.34 nM	32%	1.9 fold	0.63 nM	35%	3.3 fold	1.7 nM	45%	2.5 fold	2.5 nM	52%	3.1 fold	3.6 fold	84%	23000 MFI	29000 MFI	590 MFI	2 nM	3.9 nM	0.8 nM
